assay: soluble on expression in E. coli; label from the status in PepcDB or PDB records

Row | Sequence | soluble on expression in E. coli
1 | MSLAAGRSSTSGLVAPDIENPFFPEIIRAFQESTNLSGLEAVGMNTAYDAQRTRGVIERPVSLQVPGAAFFTTQVDSGIKNALAARNIAGVYMDYGDAAPGISSIAVNYPEGMLQAITHLRDLGHRRIGLVGGPAHGAGAQRRKAAFLEGLKTNGIEGRATESDFSVQGGYFSCSKLLASYDCTAVIAANDLMAIGALHLAYDRQIAVPAQLSIIGFDDITFAKFTQPALTTVAVPRAEIGRVAFECRLALMKDPGAAGESHEIPTHLVVRQTTASVGEGHHHHHH | not soluble
2 | MSLAAGYGVPLEQGEHRLGSSRVVVETAGDGLVRYRREVDGGGSVELLFDGTVDLQPVPMYPIFKPLYVTRFILLRIEPRIVVSPGSERTFYTLIPVDTAIYAFPGDEPTIVDVIPMDDKPSLVLYGPPESGVVARLAISSVSPRPEEPSLGRALARIAVKNISGTPVTLSRILLDSAPLKLYFERGTWRAYTQELAVEVERYRGVVMYRQPFREGTMPISDPPEVRPPRFFQRTDMMWGVEGHHHHHH | not soluble
3 | MSLAARRALHFVFKVGNRFQTARFYRDVLGMKVLRHEEFEEGCKAACNGPYDGKWSKTMVGFGPEDDHFVAELTYNYGVGDYKLGNDFMGITLASSQAVSNARKLEWPLTEVAEGVFETEAPGGYKFYLQNRSLPQSDPVLKVTLAVSDLQKSLNYWCNLLGMKIYEKDEEKQRALLGYADNQCKLELQGVKGGVDHAAAFGRIAFSCPQKELPDLEDLMKRENQKILTPLVSLDTPGKATVQVVILADPDGHEICFVGDEAFREGHHHHHH | soluble
4 | MSLAAVPAPDPGPDAGAIWHYGDPLGEQRAGQADAVLVDRSHRAVLTLDGGDRQTWLHSISTQHVSDLPEGASTQNLSLDGQGRVEDHWIQTELGGTTYLDTEPWRGEPLLAYLRKMVFWSMVTPRAADMAVLSLLGPRLAEERVLDALGLDVLPAEWLAVPLAGGGIVRRMPDGLAGQIELDVVVKRGDRADWQRRLTQAGVRPAGIWAYEAHRVAHRVPARRPRLGVDTDERTIPHEVGWIGGPGAGAVHLNKGCYRGQETVARVHNLGRPPRMLVLLHLDESVQRPSTGDAVLAGGRTVGRLGTVVEHVELGPVALALLKRGLPGDTALVTGPEAEVAAVIDVDSLPPADDVGAGRRAVERLRGGIREGHHHHHH | soluble
5 | MSLAAVQVVGSWPSVQPREAPREAIPERGNGFRLLSARLCALRPDDSSSARTEIHLLFDQLISENYSEGSGVAPEDVSALLVQACRLVPLNQNHLVSKVSQLIHHLLNRLQVIVDEQHLDFLLAYTISAIHQCSSWTHREILQALAALVYCNGSKCQKYLPELLGNTGLLMKLSDLAQSDPEVRRAAVHCMANLCLSVPGQPYLEEPYQNVCFQAFLTILQSPKSSDMDDITFCMLLQNALKGIQSLLNGGRMKLTQTDELGALLAVLKKFMFHGLPGLNIEMPTVLYPTPLPQYDGRTPIKEGHHHHHH | not soluble
6 | MSLADLQKNFQTSFRDAMASCAAGVHVITTDGAAGRYGITMTAVAPVTDEPPTVMLCINRSARIIPILSENGSLCINTLADEHQDVAEHFAGLTGLSPEERFAYHIWHRGKTGQLEIEGALAHLHGHIVGKHEIGTHFVFYVRLDEIKNCGCKRPALLYFRRQFRFLDEGGSHHHHHH | soluble
7 | MSLADLTSLSIEHLRSPRLYTHRLILRPWLVQDRARFAELNADPLVMEFFPSCLDRAQSDALLRRIDAHFAEHGFGWWALQVKGGDPFIGYVGLEVVDFDAPFVPAVAIGWRLAAEHWAEGFAHEAAEAALSYAFDTLGLDQVVAFTVPANENSLGLMERLGMHRDPTDDFEHPDLPPGHRLRHHVLYRLTREDWLRREGGSHHHHHH | soluble
8 | MSLADPDGGERSRRAARAASLSSSSRPTSVSAKQPCRVKFICRVLRPVVQGFLTSLGYRAAIGRAPSARQLRDYLLVPEVTRLHAENYGFYGRRKMHALMRRQGWVIGRDQTERLMRLAGVRGVRKSKRVLTTHSDKTTVLPADLVNRRFTAPAPRRLWVCDVTYVATWSGFAYVAFVTDVYSRRIVGWNVAATLRSEILPMQALDMAAWGAGGDLTSLIHHADHGSNSEGHHHHHH | soluble
9 | MSLADSSYYDEDYRPQYHFTPEANWMNDPNGMVYYAGEYHLFYQYHPYGLQWGPMHWGHAVSKDLVTWEHLPVALYPDEKGTIFSGSAVVDKNNTSGFQTGKEKPLVAIYTQDREGHQVQSIAYSNDKGRTWTKYAGNPVIPNPGKKDFRDPKVFWYEKEKKWVMVLAAGDRILIYTSKNLKQWTYASEFGQDQGSHGGVWECPDLFELPVDGNPNQKKWVMQVSVGNGAVSGGSGMQYFVGDFDGTHFKNENPPNKVLWTDYGRDFYAAVSWSDIPSTDSRRLWLGWMSNWQYANDVPTSPWRSATSIPRELKLKAFTEGVRVVQTPVKELETIRGTSKKWKNLTISPASHNVLAGQSGDAYEINAEFKVSPGSAAEFGFKVRTGENQFTKVGYDRRNAKLFVDRSESGNDTFNPAFNTGKETAPLKPVNGKVKLRIFVDRSSVEVFGNDGKQVITDIILPDRSSKGLELYAANGGVKVKSLTIHPLKKVWGTTPFMSNMTGWTTVNGTWADTIEGKQGRSDGDSFILSSASGSDFTYESDITIKDGNGRGAGALMFRSDKDAKNGYLANVDAKHDLVKFFKFENGAASVIAEYKTPIDVNKKYHLKTEAEGDRFKIYLDDRLVIDAHDSVFSEGQFGLNVWDATAVFQNVTKESEGHHHHHH | soluble
10 | MSLADWQEITGGITAPKGYRAAGITAGLKPSGLPDLALIVSDVEAIASGVFTTSQVKAACVDYCRQRLQAKQSARAILCNAGQANAATGSQGIKDAEESAELLAKELNISPELILLASTGVIGQRIKMDALRNGIPKLIASLTDTGSDAAAGAIITTDLVTKSIALETTIGDRPVRIGGIAKGSGMIHPNMATMLAFVTCDAAVSSHLWQQMLTRAADRSFNSITVDGDTSTNDSLIALANGQSRTPAITEVGAESEKLEAMLTAVCQHLAKAIARDGEGATCLIEVQVTGAHDEQAARQIAKTIAGSSLVKSAIFGRDPNWGRIAAAAGRAGVPFEQENLQIQLGDFLLLDNGQPLPFDRAAASAYLKQAATGAYLQQDTVLISVKVGNGHGTGKAWGCDLSYDYVKINAEYTTEGHHHHHH | soluble
11 | MSLAEINKNEVDIVIGALNADLTQFLTSWRPFFSGFHLIVVKDPELKEELNIPEGFDVDVYSKTDMEKVVGASNSTMFSGYSCRYFGYLVSKKKYIVSIDDDCVPAKDPKGFLVDAVTQHVINLENPATPLFFNTLYDPYCEGADFVRGYPFSLRSGVPCAASCGLWLNLADLDAPTQALKTEKRNTAYVDAVMTVPAKAMLPISGINIAFNRELVGPALVPALRLAGEGKVRWETLEDVWCGMCLKHISDHLGYGVKTGLPYVWRNERGDAVESLRKKWEGMKLMEKSVPFFDSLKLPETALKVEDCVIELAKAVKEQLGSDDPAFTQAADAMVKWVQLWNSVNSSA | soluble
12 | MSLAEKLPFRVKKHQSKLLKKLGETDMQLQYNKVDNLKIVVSKINGMIIHPGETFSFCKTVGLPTRKKGYKEGMELSFGKPRAGVGGGICQSTNLLHWLALHSPLTITERHHHSIDPFPDNGRVLPWASGAAVFYNYIDFQLTNDTSWAFQINLWLTDKLLEGEIRVNEELDFAYHVKERNHRFIKKEGAYFRTNEIWRHKIAKFRSGALLEEELMYKNYGKVMYVPKTYQEGHHHHHH | soluble
13 | MSLAEQATKSVLFVCLGNICRSPIAEAVFRKLVTDQNISENWVIDSGAVSDWNVGRSPDPRAVSCLRNHGIHTAHKARQITKEDFATFDYILCMDESNLRDLNRKSNQVKTCKAKIELLGSYDPQKQLIIEDPYYGNDSDFETVYQQCVRCCRAFLEKAHEGHHHHHH | soluble
14 | MSLAEQLAIADLQVDIKQIPLKQPFVTALHRVDAVNAVRVTVRLANGVTGVGTCTPNEKVTGDSLSSARAVIEETIKPLVLGKNLTDWKELLNTVKTSIVHNAPAKAAVEIALYNTRANLFGLTLSQLLGGKGGSVETDYTISIGKAEQMIADAQKMVDQGFKTLKLKLGAGHLKRDIKLVEDLAYAAGPMVHLRLDMNQACDVRQTMQAAEYWHKQGLLIDFIEQPVPAWDLDSMAYLTRHSPYPIMADESVESYEDAQRVLAKNACDYINIKLMKTGGLSEAQKINDLAESRGVPTMVGSMIESIESLAAACAFYRANPNTIFADLDAIFMVDQDPDLNSYAECVGDNIVVREGHHHHHH | soluble

Reference: the DeepSol protein solubility set
